The text below walks through data of paper PMC12311895, “Single-Molecule Protein Interactions and Unfolding Revealed by Plasmon-Enhanced Fluorescence” (Analytical Chemistry, 2025).

For the test, the target named is T1, MBP-PDZ protein (Erbin PDZ) with a single cysteine, conjugated to DNA (UniProt Q96RT1 1321-1410, ATTO 532 (labelled with ATTO 532-NHS); amine-modified DNA oligonucleotide coupled through sulfo-SMCC to the single cysteine between MBP and PDZ).
T1 construct: stretch between MBP and the PDZ domain that holds the single introduced cysteine; Erbin PDZ domain; Held on DNA-coated 40 by 80 nm gold nanorods by DNA hybridisation; About 50% of the protein in the conjugation mixture carried no DNA; also called Erbin PDZ protein; PDZ-DNA; not shown: MBP, N-terminal, kept
Kind of test: single-molecule plasmon-enhanced fluorescence microscopy (TIRF); MBP-PDZ held on gold nanorods (40 by 80 nm) by DNA hybridisation, particles immobilised on glass; ATTO 655-labeled peptide in solution; 637 nm laser; 20 ms exposure; koff from bright times (double exponential fit), kon from event frequency against proteins per particle. The note with it: both partners purified.

Where no end group is shown, it is not given here.

For the molecule CGAGRGSIDTWV (also: ATTO 655 label (site not given here)) [ATTO 655-labeled target peptide], the Kd lay within 1 to 5.1 µM and the kon amounted to 1.2e+07 M⁻¹ s⁻¹.

Broadly, the Kd is the equilibrium constant for the complex coming apart. The kon is the rate constant with which the complex forms.
